Test results taken from PMC7155755, “Binding of the Human 14-3-3 Isoforms to Distinct Sites in the Leucine-Rich Repeat Kinase 2” (Frontiers in Neuroscience, 2020).
Like-named read-outs stand apart in the source and are kept apart here.

Experiments:
14-3-3θ = 14-3-3θ (UniProt P27348); experiment: fluorescence polarization direct binding; conditions: reference: unphosphorylated T2524 peptide; sites T2524
14-3-3β = 14-3-3β (UniProt P31946); experiment: fluorescence polarization direct binding; conditions: reference: unphosphorylated T2524 peptide; sites T2524
14-3-3γ = 14-3-3γ (UniProt P61981); experiment: fluorescence polarization direct binding; conditions: reference: unphosphorylated T2524 peptide; sites T2524
14-3-3σ = 14-3-3σ (UniProt P31947); experiment: fluorescence polarization direct binding; conditions: reference: unphosphorylated T2524 peptide; sites T2524
14-3-3η = 14-3-3η (UniProt Q04917); experiment: fluorescence polarization direct binding; conditions: reference: unphosphorylated T2524 peptide; sites T2524
14-3-3ζ = 14-3-3ζ (UniProt P63104); experiment: fluorescence polarization direct binding; conditions: reference: unphosphorylated T2524 peptide; sites T2524
14-3-3ε = 14-3-3ε (UniProt P62258); experiment: fluorescence polarization direct binding; conditions: reference: unphosphorylated T2524 peptide; sites T2524
pS910/pS935 [1] = experiment: fluorescence polarisation; direct binding; dilution series of 14-3-3 isoform (at least 5 μM down to picomolar) mixed with 1 nM fluorescein-labelled peptide; 20 mM MOPS pH 7, 150 mM NaCl, 0.005% CHAPS; 384-well plates
Q930R/pS935 = experiment: as above
pS910/pS935 [2] = experiment: as above; remark: listed apart in the source
pS1444 = experiment: as above
R1441C/pS1444 = target: T1, R1441C/pS1444 (R1441C (stands in the printed letters)); experiment: as above
T1 construct: LRRK2-derived peptide of the Roc domain with the familial PD mutation R1441C, phosphorylated at S1444; source: synthetic peptide (Peps4LS GmbH)
T1 peptide: fluorescein-LFNIKACAS[pS]SPVILVGT

[3] = target: LRRK2 pS910/pS935 peptide (Homo sapiens, UniProt Q5S007)
Chain of LRRK2 pS910/pS935 peptide (Q5S007 whole entry): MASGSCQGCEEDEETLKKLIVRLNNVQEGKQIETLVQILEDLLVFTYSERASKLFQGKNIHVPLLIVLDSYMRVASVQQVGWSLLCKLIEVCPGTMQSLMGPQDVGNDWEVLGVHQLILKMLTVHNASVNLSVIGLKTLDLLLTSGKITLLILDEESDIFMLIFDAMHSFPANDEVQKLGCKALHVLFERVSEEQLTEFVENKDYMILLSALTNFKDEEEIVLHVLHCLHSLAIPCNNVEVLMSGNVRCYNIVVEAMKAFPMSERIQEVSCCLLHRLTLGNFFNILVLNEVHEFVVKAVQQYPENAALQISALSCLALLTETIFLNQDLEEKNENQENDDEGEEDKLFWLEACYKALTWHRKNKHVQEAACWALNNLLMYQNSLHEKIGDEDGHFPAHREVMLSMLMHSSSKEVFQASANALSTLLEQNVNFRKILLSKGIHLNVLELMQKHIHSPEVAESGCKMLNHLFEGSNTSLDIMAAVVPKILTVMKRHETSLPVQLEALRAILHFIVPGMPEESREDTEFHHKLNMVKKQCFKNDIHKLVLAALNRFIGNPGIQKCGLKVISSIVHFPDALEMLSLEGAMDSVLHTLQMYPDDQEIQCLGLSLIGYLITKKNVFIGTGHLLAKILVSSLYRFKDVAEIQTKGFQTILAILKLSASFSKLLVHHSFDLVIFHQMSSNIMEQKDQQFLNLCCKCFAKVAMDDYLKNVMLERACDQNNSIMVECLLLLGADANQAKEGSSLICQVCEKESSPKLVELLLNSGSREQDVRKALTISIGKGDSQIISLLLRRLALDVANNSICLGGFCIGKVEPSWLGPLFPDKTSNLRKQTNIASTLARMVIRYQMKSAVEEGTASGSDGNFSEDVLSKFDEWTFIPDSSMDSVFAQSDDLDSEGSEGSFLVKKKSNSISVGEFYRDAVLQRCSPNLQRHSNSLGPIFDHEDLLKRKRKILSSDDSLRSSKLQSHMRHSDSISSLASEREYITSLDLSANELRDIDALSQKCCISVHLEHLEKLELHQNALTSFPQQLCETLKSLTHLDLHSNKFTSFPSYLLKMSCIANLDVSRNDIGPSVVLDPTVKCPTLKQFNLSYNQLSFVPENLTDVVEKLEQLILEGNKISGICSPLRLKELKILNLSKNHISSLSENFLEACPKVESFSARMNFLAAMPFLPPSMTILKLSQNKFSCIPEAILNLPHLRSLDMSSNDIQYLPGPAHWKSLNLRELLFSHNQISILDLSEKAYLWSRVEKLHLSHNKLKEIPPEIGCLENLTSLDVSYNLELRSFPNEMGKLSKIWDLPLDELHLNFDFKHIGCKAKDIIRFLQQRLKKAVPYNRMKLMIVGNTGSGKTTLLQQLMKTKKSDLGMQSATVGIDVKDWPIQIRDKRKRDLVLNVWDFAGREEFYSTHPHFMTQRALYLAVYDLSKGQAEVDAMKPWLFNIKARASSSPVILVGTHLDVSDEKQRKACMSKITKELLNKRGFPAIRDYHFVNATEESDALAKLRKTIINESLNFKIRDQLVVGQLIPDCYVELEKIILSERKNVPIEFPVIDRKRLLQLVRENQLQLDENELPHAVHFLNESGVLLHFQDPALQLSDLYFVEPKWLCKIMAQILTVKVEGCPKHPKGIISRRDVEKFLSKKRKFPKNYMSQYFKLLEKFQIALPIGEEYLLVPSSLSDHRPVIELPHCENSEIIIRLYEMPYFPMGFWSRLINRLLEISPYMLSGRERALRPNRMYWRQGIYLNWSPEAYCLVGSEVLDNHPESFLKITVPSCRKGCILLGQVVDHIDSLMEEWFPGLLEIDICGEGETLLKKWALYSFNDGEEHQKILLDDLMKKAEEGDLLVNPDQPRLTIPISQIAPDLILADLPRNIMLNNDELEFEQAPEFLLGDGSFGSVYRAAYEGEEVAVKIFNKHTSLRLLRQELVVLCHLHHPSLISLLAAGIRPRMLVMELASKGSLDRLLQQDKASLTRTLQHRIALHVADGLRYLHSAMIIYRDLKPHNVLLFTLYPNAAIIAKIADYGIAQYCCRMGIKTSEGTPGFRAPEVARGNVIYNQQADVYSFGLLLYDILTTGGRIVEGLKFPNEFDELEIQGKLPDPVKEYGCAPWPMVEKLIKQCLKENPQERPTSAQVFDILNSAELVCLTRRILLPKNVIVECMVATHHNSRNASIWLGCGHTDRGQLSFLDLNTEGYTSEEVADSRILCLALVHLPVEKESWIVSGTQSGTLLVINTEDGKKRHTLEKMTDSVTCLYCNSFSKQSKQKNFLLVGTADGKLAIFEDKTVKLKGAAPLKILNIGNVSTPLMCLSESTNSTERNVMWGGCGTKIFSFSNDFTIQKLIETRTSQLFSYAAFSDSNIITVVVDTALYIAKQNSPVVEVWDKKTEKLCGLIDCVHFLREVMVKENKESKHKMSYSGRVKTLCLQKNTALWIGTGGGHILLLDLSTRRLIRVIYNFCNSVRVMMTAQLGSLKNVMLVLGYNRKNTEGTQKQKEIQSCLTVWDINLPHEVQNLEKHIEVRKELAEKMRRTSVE

Chain of pS910/pS935 (Q5S007 906-940): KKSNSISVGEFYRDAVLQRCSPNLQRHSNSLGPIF

## LRRK2 (leucine-rich repeat kinase 2) C-terminus (from UniProt Q5S007) pT2524 peptide
14-3-3θ
  binding against the reference: gained
14-3-3β
  binding against the reference: gained
14-3-3γ
  binding against the reference: gained
14-3-3σ
  binding against the reference: gained
14-3-3η
  binding against the reference: gained
14-3-3ζ
  binding against the reference: gained
14-3-3ε
  binding against the reference: gained

## human 14-3-3 isoform γ (recombinant, MBP tag removed) (from UniProt P61981 1-247) (natural protein)
pS910/pS935 [1]
  Kd: 4.8 nM
Q930R/pS935
  Kd: 11.1 nM
pS910/pS935 [2]
  Kd: 3.2 nM
pS1444
  Kd: 106 nM
R1441C/pS1444
  fold decrease in affinity against pS1444: > 30 fold

B1: 14-3-3σ (protein)
chain: MERASLIQKAKLAEQAERYEDMAAFMKGAVEKGEELSCEERNLLSVAYKNVVGGQRAAWRVLSSIEQKSNEEGSEEKGPEVREYREKVETELQGVCDTVLGLLDSHLIKEAGDAESRVFYLKMKGDYYRYLAEVATGDDKKRIIDSARSAYQEAMDISKKEMPPTNPIRLGLALNFSVFHYEIANSPEEAISLAKTTFDEAMADLHTLSEDSYKDSTLIMQLLRDNLTLWTADNAGEEGGEAPQEPQS
modifications: pS910+pS935
[3]
  Kd: 61 nM
